Where a chain is given by its changes, count along the chain named. Names may count otherwise.
T1: Human NT-3 (human, UniProt P20783 139-257)
T1 construct: mature; also called hNT-3
T1 sequence (looked up): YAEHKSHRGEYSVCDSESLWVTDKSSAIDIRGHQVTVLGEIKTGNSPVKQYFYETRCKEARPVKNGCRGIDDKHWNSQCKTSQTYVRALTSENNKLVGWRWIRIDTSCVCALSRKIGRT

T2: Human NT-4 (human, UniProt P34130 81-210)
T2 construct: mature; also called hNT-4
T2 sequence (looked up): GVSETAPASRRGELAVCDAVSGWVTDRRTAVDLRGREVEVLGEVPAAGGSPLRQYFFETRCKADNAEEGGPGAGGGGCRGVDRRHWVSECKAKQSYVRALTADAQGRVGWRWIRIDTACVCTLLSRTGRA

T3: Human BDNF (human, UniProt P23560 129-247)
T3 construct: mature; also called hBDNF
T3 sequence (looked up): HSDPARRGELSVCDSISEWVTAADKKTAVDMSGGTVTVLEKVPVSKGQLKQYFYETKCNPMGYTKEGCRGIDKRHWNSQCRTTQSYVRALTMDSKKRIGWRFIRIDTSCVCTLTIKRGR

B1: PetML119-S109Y (Canine p75NTR ECD S109Y-canine IgGB wt Fc) (Fc fusion)
chain: KEACPTGLYTHSGECCKACNLGEGVAQPCGANQTVCEPCLDSVTFSDVVSATEPCKPCTECVGLQSMSAPCVEADDAVCRCAYGYYQDETTGRCEACRVCEAGSGLVFYCQDRQNTVCEECPDGTYSDEANHVDPCLPCTVCEDTERQLRECTRWADAECEEIPGRGGGGRENGRVPRPPDCPKCPAPEMLGGPSVFIFPPKPKDTLLIARTPEVTCVVVDLDPEDPEVQISWFVDGKQMQTAKTQPREEQFNGTYRVVSVLPIGHQDWLKGKQFTCKVNNKALPSPIERTISKARGQAHQPSVYVLPPSREELSKNTVSLTCLIKDFFPPDIDVEWQSNGQQEPESKYRTTPPQLDEDGSYFLYSKLSVDKSRWQRGDTFICAVMHEALHNHYTQKSLSHSPGK
notes: Signal peptide left out as for PetML119; If the listing carries them, the end of the range is 426
B2: PetML119-S109H (Canine p75NTR ECD S109H-canine IgGB wt Fc) (Fc fusion)
chain: B1 chain with Y109H
B3: PetML119-D134L (Canine p75NTR ECD D134L-canine IgGB wt Fc) (Fc fusion)
chain: B1 chain with Y109S, D134L
notes: Signal peptide left out as for PetML119; also called D134L mutant
B4: PetML119-V133R (Canine p75NTR ECD V133R-canine IgGB wt Fc) (Fc fusion)
chain: B1 chain with Y109S, V133R
notes: Signal peptide left out as for PetML119
B5: PetML119-E75T (Canine p75NTR ECD E75T-canine IgGB wt Fc) (Fc fusion)
chain: B1 chain with D75T, Y109S
notes: The signal peptide (first 19 residues) is left out as for PetML119
B6: PetML119 (Canine p75NTR ECD-canine IgGB wt Fc protein fusion) (Fc fusion)
chain: KEACPTGLYTHSGECCKACNLGEGVAQPCGANQTVCEPCLDSVTFSDVVSATEPCKPCTECVGLQSMSAPCVEADDAVCRCAYGYYQDETTGRCEACRVCEAGSGLVFSCQDRQNTVCEECPDGTYSDEANHVDPCLPCTVCEDTERQLRECTRWADAECEEIPGGGGRENGRVPRPPDCPKCPAPEMLGGPSVFIFPPKPKDTLLIARTPEVTCVVVDLDPEDPEVQISWFVDGKQMQTAKTQPREEQFNGTYRVVSVLPIGHQDWLKGKQFTCKVNNKALPSPIERTISKARGQAHQPSVYVLPPSREELSKNTVSLTCLIKDFFPPDIDVEWQSNGQQEPESKYRTTPPQLDEDGSYFLYSKLSVDKSRWQRGDTFICAVMHEALHNHYTQKSLSHSPGK
notes: Made in CHO cells; also called PetML119wt; p75NTR-Fc
B7: Bedinvetmab (antibody, V domains shown)
VH: EVQLVESGGDLVKPGGSLRLSCVASGFTFSSHGMHWVRQSPGKGLQWVAVINSGGSSTYYTDAVKGRFTISRDNAKNTVYLQMNSLRAEDTAMYYCAKESVGGWEQLVGPHFDYWGQGTLVIVSS
VL: QSVLTQPTSVSGSLGQRVTISCSGSTNNIGILGASWYQLFPGKAPKLLVYGNGNRPSGVPDRFSGADSGDSVTLTITGLQAEDEADYYCQSFDTTLGAHVFGGGTHLTVL

Assays:
Human NGF [1] = biological target: T4, Human NGF (human, UniProt P01138 122-241); experiment: cell-based or functional assay
T4 sequence (P01138 122-241): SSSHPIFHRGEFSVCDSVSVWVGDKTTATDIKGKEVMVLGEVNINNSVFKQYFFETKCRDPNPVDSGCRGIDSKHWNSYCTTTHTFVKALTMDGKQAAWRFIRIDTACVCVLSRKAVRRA

Human NT-3 = biological target: T1, Human NT-3; experiment: SPR, Biacore 8K, binder captured on Protein A chip, ligand as analyte
Human NT-4 = biological target: T2, Human NT-4; experiment: as above
Human BDNF = biological target: T3, Human BDNF; experiment: as above
Human NGF [2] = biological target: T4, Human NGF; experiment: as above
Description: (§1) Binding affinity of fusion proteins to human and rat NGF was assessed using Biacore 8K (Cytiva). Briefly, Protein A Sensor Chip (Cytiva) was docked into Biacore 8K, equilibrated for 30′ at RT and then Running Buffer (10 mM HEPES pH7.4 150 mM NaCl 3 mM EDTA and 0.005% Tween20) was applied to the SPR chip surface.
(§2) PetML119var was diluted into running buffer at 6 nM concentration. These were immobilised using 90 sec association at 10 uL/min as capturing step, followed by injection of running buffer to remove any unbound product.

Human proNGF [3] = biological target: T5, Human proNGF (human, UniProt P01138 19-241); experiment: as above
T5 construct: This is the precursor form with the pro-peptide; also called h-proNGF; the pro-peptide
T5 sequence (P01138 19-241): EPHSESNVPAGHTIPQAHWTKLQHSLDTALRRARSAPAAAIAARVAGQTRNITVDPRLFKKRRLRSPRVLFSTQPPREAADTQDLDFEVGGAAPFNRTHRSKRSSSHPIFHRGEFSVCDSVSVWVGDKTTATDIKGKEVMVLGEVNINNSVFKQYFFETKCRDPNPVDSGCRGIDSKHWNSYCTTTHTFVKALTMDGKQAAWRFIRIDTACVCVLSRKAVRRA
Description: as §1, §2

Human proNGF [4] = biological target: T5, Human proNGF; experiment: as above; remark: listed apart in the source
[5] = biological target: NGF (species not stated) (Homo sapiens (Human)) (UniProt P01138); experiment: cell-based or functional assay
Human NGF (human) = Human NGF (human) (UniProt P01138); experiment: cell-based or functional assay
Chain of Human NGF (human) (P01138 122-241): as the sequence (P01138 122-241) above

Binder | Kd (Human NT-3) | Kd (Human NT-4) | Kd (Human BDNF) | further results
B1 | 8.3 nM | 12 nM | 16.7 nM | IC50 (nM), inhibition of NGF-dependent TF-1 cell proliferation (Human NGF [1]): 0.17 nM; ICMAX (%), inhibition of NGF-dependent TF-1 cell proliferation (Human NGF [1]): 88.5%
B2 | 7.9 nM | 9.1 nM | 16.2 nM | IC50 (nM), inhibition of NGF-dependent TF-1 cell proliferation (Human NGF [1]): 2.15 nM; ICMAX (%), inhibition of NGF-dependent TF-1 cell proliferation (Human NGF [1]): 93.5%
B3 | 8.3 nM | 101 nM | 26.7 nM | fold reduced affinity relative to PetML119wt (Human NGF [2]): 20 ×
B4 | 7.2 nM | 8.3 nM | 42.3 nM | 
B5 | 5.1 nM | 98.5 nM | 15.4 nM | fold reduced affinity relative to PetML119wt (Human NGF [2]): 40 ×
B6 | 4.9 nM | 7.2 nM | 14.4 nM | fold higher affinity for proNGF than for mature NGF (Human proNGF [3]): 171 ×; Kd (Human proNGF [4]): 0.0019 nM
B7 |  |  |  | Bottom (%), best-fit, PathHunter TrkA activation assay with NGF at 2 nM [5]: 5.35%; IC50 (nM), PathHunter TrkA activation assay with NGF at 2 nM [5]: 4.24 nM; Top (%), best-fit, PathHunter TrkA activation assay with NGF at 2 nM [5]: 123%; TrkA inhibition, PathHunter TrkA activation assay with NGF at 2 nM [5]: 100%; IC50 (nM), inhibition of NGF-dependent TF-1 cell proliferation (Human NGF (human)): 0.89 nM; IC Max, inhibition of NGF-dependent TF-1 cell proliferation (Human NGF (human)): 100; ICMAX (%), inhibition of NGF-dependent TF-1 cell proliferation (Human NGF (human)): 96.8%; Kd (Human proNGF [4]): 0.0018 nM

Reference: US20260234233A1 (PETMEDIX, published 2026)
